Data on 15 molecules can be found in patent US20220125947A1 (published 2022).

T1: TCR gamma/delta constant region (TRGDC) (human, UniProt P0CF51 1-173; B7Z8K6 1-153)
T1 chain (looked up) 1: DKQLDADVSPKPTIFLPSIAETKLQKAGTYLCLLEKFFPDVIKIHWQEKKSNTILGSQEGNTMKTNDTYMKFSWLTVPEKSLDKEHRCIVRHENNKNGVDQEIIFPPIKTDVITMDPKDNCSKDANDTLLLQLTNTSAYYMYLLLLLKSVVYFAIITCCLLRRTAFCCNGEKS
T1 chain (looked up) 2: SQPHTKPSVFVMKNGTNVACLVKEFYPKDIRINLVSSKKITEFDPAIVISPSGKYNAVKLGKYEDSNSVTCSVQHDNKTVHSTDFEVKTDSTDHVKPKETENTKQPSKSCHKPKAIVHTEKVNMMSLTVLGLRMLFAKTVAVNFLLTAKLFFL

B1: VG9B386 (antibody, human IgG1, kappa, V domains shown)
VH: EVQLVESGGGLVKPGGSLRLSCAASGFTFSSYSMIWVRQAPGKGLEWVSSIGSSSTYIYYADSVRGRFTISRDNAKTSLYLQMNSLRAEDTAMYFCARDGETGGFDYWGQGILVTVSS
VL: EIVMTQSPGTLSLSPGERATLSCRASQSISRSYLAWYQQKPGQPPRLLIYGPSNRATGIPDRFSASGSGTDFTLTNSRLEPEDFAVYYCQQYGSLPLTFGGGTKVEIKR
B2: VG9B410 (antibody, human IgG1, kappa)
heavy: not shown
light: DIQMTQSPSSVSASVGDRVTITCRASQGINSWLAWYQQKPGNAPKLLIYAASSLQSGVPSRFSGIGSGTDFIFTISSLQPEDFASYYCQQANSFPWTFGQGTKVEIKRTVAAPSVFIFPPSDEQLKSGTASVVCLLNNFYPREAKVQWKVDNALQSGNSQESVTEQDSKDSTYSLSSTLTLSKADYEKHKVYACEVTHQGLSSPVTKSFNRGEC
B3: VG9B125 (antibody, human IgG1, kappa, V domains shown)
VH: EVQLVESGGTLVQPGGSLRLSCAVSGFTFSSYDMNWVRQAPGKGLEWVSYISSSSTAKYYADSVKGRFTISRDNAKNSLYLQMNSLWDEDTAVYYCAREDIVVVTPILQHWGQGTTVTVSS
VL: EIVMTQSPATLSLSPGERAILSCRASQSVSKDLAWYQQKPGQAPRLLIYDASNRATGIPARISGSGSGTDFTLTISSLEPEDFAVYYCQQRINWPLFTFGPGTKVEIKR
B4: VG9B387 (antibody, human IgG1, lambda, V domains shown)
VH: EVQLVESGAEVKKPGASVKVSCKASGFTFTGYYLQWVRQAPGQGLEWMGWINPNSGYTDYAQRFQDRVTMTRDTSINTAYMELSRLRSDDTAVYYCARLDDAFDVWGQGTMVTVSS
VL: SYELTQDPAVSVALGQTVRITCQGDSLRNYYAIWYQQKPGQAPVLVIFGKNNRPSGIPDRFSGSSSGTTASLTITGTQAEDEADYYCNSRDSSGNHWVFGGGTKLTVLG
B5: VG9B112 (antibody, human IgG1, kappa, V domains shown)
VH: QVQLQQSGPGLVKPSQTLSLTCAISGDSVSSNSAAWNWIRQSPSRGLEWLGGTYYRSKWFNNYAVSVKSRITINPDTSTNQFSLQLNSVTPADTAVYYCARGEWGLRDAFDIWGQGTMVTVSS
VL: DIQMTQSPSFLSASVGDRVIITCRASQGIHSYLAWYQQKPGKVPKLLIYVASTLQSGVPSRFSGSGSGTEFTLTISSLQPEDFATYYCQQLNSYPWTFGQGTKLEIKR
B6: VG9B403 (antibody, human IgG1, kappa)
heavy: not shown
light: DIVMTQSPGTLSLSPGDRATLSCRASQSVASSYLAWYQQKPGQSPRLLIYGASSRATGIPDRFSGSGSGTDFTLTISRLEPEDFAVYYCQQYGSSPPYTFGQGTKVEIKRTVAAPSVFIFPPSDEQLKSGTASVVCLLNNFYPREAKVQWKVDNALQSGNSQESVTEQDSKDSTYSLSSTLTLSKADYEKHKVYACEVTHQGLSSPVTKSFNRGEC
B7: VG9B402 (antibody, human IgG1, kappa)
heavy: not shown
light: DIQMTQSPSSVSASVGDRVTITCRASQGINSWLAWYQQKPGNAPKLLIYAASSLQSGVPSRFSGIGSGTDFIFTISSLQPEDFASYYCQQANSFPWTFGQGTKVDIKRTVAAPSVFIFPPSDEQLKSGTASVVCLLNNFYPREAKVQWKVDNALQSGNSQESVTEQDSKDSTYSLSSTLTLSKADYEKHKVYACEVTHQGLSSPVTKSFNRGEC
B8: VG9B67 (antibody, human IgG1, kappa, V domains shown)
VH: EVQLVESGGGLVKPGGSLRLSCAASGFTFSSYTMNWVRQAPGKGLEWVSSISSSSSYIDYAESVKGRFTISRDNAKNSLYLQMNSLRAEDTAVYYCARDGDILATIRGSFDYWGQGTTVTVSS
VL: DIVMTQTPLSLPVTPGEPASISCRSSQSLLDSDAGNTYLDWYLQKPGQSPQLLIYTLSYRASGVPDRFSGSGSGTDFTLKISRVEAEDVAIYYCMQRIEFPITFGQGTKVEIKR
B9: VG9B127 (antibody, human IgG1, kappa, V domains shown)
VH: QVQLVESGGGLVKPGGSLRLSCTASGFTFGAYTMNWVRQAPGKGLEWVSSISSSSSYIDFAESVKGRFTISRDNAKNSLYLQMISLRAEDTAVYYCARDGDIVSTIRGSFDYWGQGALVTVSS
VL: EIVMTQSPLSLPVTPGEPASISCRSSQSLLDSDDGNTYLDWYLQKPGQSPQLLIYTLSYRASGVPDRFSGSGSGTDFTLKISRVEAEDVGIYYCMQRIEFPITFGQGTKVEIKR
B10: VG9B33 (antibody, human IgG1, kappa, V domains shown)
VH: EVQLVESGGGLVKPGGSLRLSCAASGFTFSSYNMNWVRQAPGKGLEWVSSISTSSSYIYYADSVKGRFTISRDNAKNSLYLQMNGLRAEDTAVYYCARDTSVTKYPDTFDIWGQGTMVTVSS
VL: DIVMTQSPSSLSASVGDRVTITCRASQDINNYLAWFQQKPGKVPNLLIYGASTLQSGVPSRFTGSGSGTDFTLTISSLQPEDVATYYCQKYNSAPFTFGPGTKVDIKR
B11: VG9B162 (antibody, human IgG1, lambda, V domains shown)
VH: QVQLVESGAEVTKPGASVKVSCKASGYTFTGDYMHWVRQAPGQGLEWMGWINPNSGYTNYAQKFQGRVTMTRDTSISTAYMELSRLRSDDTAVYYCAREGDAFDVWGQGTMVTVSS
VL: QLVLTQSSSASGSPGQSVTISCTGTSSDVGGYNYVSWYQQHPGKAPKLMIYEVSKRPSGVPDRFSGSKSGNTASLTVSGLQAEDEADYYCNSYAGSNNFEVFGGGTKLTVLG
B12: VG9B137 (antibody, human IgG1, kappa, V domains shown)
VH: EVQLVESGGGLVKPGGSLRLSCAAFGITFSSYSMDWVRQAPGRGLEWVSSIGSSSSYIFYADSVKGRFTISRDNAKNSLYLQMNSLRAEDTAVYYCATSYSWNYGGAFDIWGQGTMVTVSS
VL: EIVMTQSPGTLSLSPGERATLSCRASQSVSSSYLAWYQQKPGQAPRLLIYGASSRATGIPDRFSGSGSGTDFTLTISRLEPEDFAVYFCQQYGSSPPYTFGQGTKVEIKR
B13: VG9B44 (antibody, human IgG1, kappa, V domains shown)
VH: QVQLQQSGPGLVKPSQTLSLTCAISGDSVSSNSAAWNWIRQSPSRGLEWLGRTYYRSKWYNDYPISVKSRISINPDTSKNQFSLQLNSVTPEDTAVYYCARESGSYYTDGFDIWGQGTMVTVSS
VL: DIQMTQSPSFLSASVGDRVTITCRASQGISSYLAWYQQKPGKAPKLLIYAASTLQSGVPSRFSGSGSGTEFTLTISSLQPEDFATYYCQEFNSYPYTFGQGTKLEIKR
B14: VG9B191 (antibody, human IgG1, lambda, V domains shown)
VH: EVQLVQSGGGLVKPGGSLRLSCAASGFTFSRYSMNWVRQAPGKGLEGVSSISSSSSYIYYADSVKGRFTISRDNAKNSLYLQMNSLRAEDTAVYYCARDGPTVNWDYYFDLWGRGTLVTVSS
VL: QSVLTQPPSVSAAPGQKVTISCSGSSSNIGNNYVSWYQQLPGTAPKLLIYDNNKRPSGIPDRFSGSKSGTSATLGITGLQTGDEADYYCGTWDSSLSTSVVFGGGTKLTVLG
B15: VG9B36 (antibody, human IgG1, kappa, V domains shown)
VH: QVQLVESGGGLVKPGGSLRLSCASSGFTFSSYGMYWVRQAPGKGLEWVSSISTGSSYIYYADSVKGRFTISRDNAKNSLYLQMNSLRAEDTAVYYCARDKGLAVTGYIMDVWGQGTTVTVSS
VL: EIVLTQSPSSLSASVGDRVTITCQASQDISNYLNWYQQKPGKAPKLLIYDASNLETGVPSRFSGSGSGTDFTFTISSLQPEDIAIYYCQQYDNLPMYTFGQGTKVEIKR

One experiment concerns the target T1, TCR gamma/delta constant region (TRGDC). As to the kind of experiment: cell-based or functional assay.
As to B1, the “CD25+ (Vg9+ cells), flow staining” value is 29.7%; the “CD71+ (Vg9+ cells), flow staining” value stood at 97%; the “Granzyme B; Luninex (supernatant)” value amounted to 2960; the “IFNγ; Luninex (supernatant)” value is 846. The “IL6; Luninex (supernatant)” value was 228; the “TNFα; Luninex (supernatant)” value was found to be 89; the “Vg9 T cell %, flow staining” value is 8.5%.
In the case of B2, the “CD25+ (Vg9+ cells), flow staining” value is 36.5%; the “CD71+ (Vg9+ cells), flow staining” value stood at 98.2%; the “Granzyme B; Luninex (supernatant)” value was determined as 4390; the “IFNγ; Luninex (supernatant)” value came to 2120. In addition, the “IL6; Luninex (supernatant)” value came to 590; the “TNFα; Luninex (supernatant)” value came to 158; the “Vg9 T cell %, flow staining” value was determined as 12.3%.
Regarding B3, the “CD25+ (Vg9+ cells), flow staining” value turned out to be 24.8%; the “CD71+ (Vg9+ cells), flow staining” value amounted to 70.8%; the “Granzyme B; Luninex (supernatant)” value was 3760; the “IFNγ; Luninex (supernatant)” value amounted to 1490. For the same molecule, the “IL6; Luninex (supernatant)” value was 587; the “TNFα; Luninex (supernatant)” value is 959; the “Vg9 T cell %, flow staining” value stood at 12.4%.
On to B4, for which the “CD25+ (Vg9+ cells), flow staining” value came out at 24.7%; the “CD71+ (Vg9+ cells), flow staining” value was determined as 89.7%; the “Granzyme B; Luninex (supernatant)” value stood at 1470; the “IFNγ; Luninex (supernatant)” value stood at 746. Moreover, the “IL6; Luninex (supernatant)” value is 5200; the “TNFα; Luninex (supernatant)” value was found to be 135; the “Vg9 T cell %, flow staining” value was found to be 5.5%.
Turning to B5, the “CD25+ (Vg9+ cells), flow staining” value was found to be 23.4%; the “CD71+ (Vg9+ cells), flow staining” value came out at 91.8%; the “Granzyme B; Luninex (supernatant)” value amounted to 1140; the “IFNγ; Luninex (supernatant)” value worked out at 461. Besides, the “IL6; Luninex (supernatant)” value was 256; the “TNFα; Luninex (supernatant)” value came out at 1260; the “Vg9 T cell %, flow staining” value came to 7.9%.

In another experiment the target is T2, γδ T cell receptor on human γδ T cells (human).
T2 construct: Mixed population of primary cells; also called AG000003021 (γδ T cells)
The experiment in a line: flow cytometry, dose-response binding at 37° C. on human γδ T cells. The procedure: Binding of antibodies to human γδ T cells or SKW cell lines expressing Vγ9/Vδ2, Vγ9/Vδ2 or Vγ5/Vδ2 was carried out by flow cytometry. Briefly, the cells were centrifuged at 300×g for 5 minutes and the pellet was resuspended in 34 ml fresh media (in RPMI+10% FBS). 50 μL of the cells were then plated (44K cells/well) into assay plates. Samples were incubated for one hour at 37° C. in tissue culture (TC) incubator followed by wash steps by adding 100 μl FACS staining buffer. Secondary detention antibodies (A647 conjugated anti-human IgG Fc specific antibody (2 μg/mL) along with AF488 anti mouse CD3, clone OKT3 at 1 ug/mL) were added at 50 μL/well to appropriate wells according to the plate map. After incubating for 60 minutes at 37° C. in the TC incubator, cells were again washed as described above. This is followed by resuspension in 20 μL/well running buffer containing 1:1000 dilution of Sytox blue dead cell stain and the plates were run on iQue Screener.
Gating and data analysis: Human anti-human Vγ9 antibody (VG9B2 mAb at 10 nM) was used to mark the gating of positive population. All cells were first gated for singlets on SCS-A vs. SCS-H dot plot, live/dead followed by CD3 positive population, and this subset of CD3 positive population was gated for Vγ9 positive binding using positive control mAb. Cells were also assessed for cell binding of control mAbs by RL1 (A647) Geomeans from the live cell population. Advanced metrics were used and normalization metrics were chosen to calculate fold over background wells containing secondary antibody alone (designated as ‘background’ within ForeCyt settings).
Turning to B6, the “Max. Activity” value was 2390 fold over background.
As for B7, the “Max. Activity” value was found to be 2250 fold over background.
Still for that read-out and setting: under B8 stands 2270 fold over background.
On the same count and under the same terms, under B9 stands 2230 fold over background; under B10, 2090 fold over background; under B11, 1860 fold over background.
Same read-out and setting: the same measure for B12: 2200 fold over background.
In the case of B13, the “Max. Activity” value came to 2320 fold over background.
Same read-out and setting: the same measure for B14: 2370 fold over background; for B15: 2410 fold over background.
